Results as given in patent US6274553A, “Method for stabilizing peptides and freeze-dried medicinal compositions containing peptides obtained by using the method” (Japan Energy Corporation, priority 1997, dated 2001).

Tests used:
Format in all cases: physicochemical
[1] = Storage stability of lyophilized HV1C3 at 60° C., pH with tartaric acid (Experiment Example 3); conditions: saccharose, mannitol
Experimental: Hirudin variant HV1C3, purified saccharose, and mannitol were dissolved in purified water to a final concentration of 6 mg/ml (0.86 mM), 1.6 mg/ml (4.7 mM), and 10 mg/ml (55 mM), respectively. The resulting solution was divided into four equal portions. Three of these portions were adjusted to pHs 5.0, 5.5, and 6.0 using 30 mM tartaric acid. The peptide solutions for which the pH was thus adjusted and the peptide solution without pH adjustment were filtered through a 0.22 μm membrane filter. The filtrates were filled into 6 ml vials in the amount of 1 ml for each vial. 50 such vials were prepared for each pH of the solution, 200 vials in total. All these 200 vials were lyophilized.
(§1) The lyophilized samples were stored in an incubator at 60° C. and removed from the incubator after 1, 2, 3, 4, 5, 6, 7, and 8 weeks, respectively. 1 ml of purified water was added to each vial removed. Solutions further diluted 50-fold were used to measure the amount (percentage) of the hirudin variant HV1C3 remaining in the lyophilized sample in the same manner as in Experiment Example 1.

[2] = Storage stability of lyophilized HV1C3 at 60° C., pH adjusting agents (Experiment Example 2); conditions: saccharose, mannitol
Experimental: Hirudin variant HV1C3, purified saccharose, and mannitol were dissolved in purified water to a final concentration of 6 mg/ml (0.86 mM), 1.6 mg/ml (4.7 mM), and 10 mg/ml (55 mM), respectively. The resulting solution was divided into five equal portions. Four of these portions were adjusted to pH 5.5 with the addition of 30 mM of acetic acid, tartaric acid, citric acid, or phosphoric acid. The peptide solutions for which the pH was thus adjusted and the peptide solution without pH adjustment were filtered through a 0.22 μm membrane filter. The filtrates were filled into 6 ml vials in the amount of 1 ml for each vial. 50 such vials were prepared for each pH of the solution, 250 vials in total. All these 250 vials were lyophilized.
as §1

[3] = Storage stability of lyophilized HV1C3 at 50° C., liquid chromatography peak area (Experiment Example 1); conditions: glycine, mannitol
Experimental: Hirudin variant HV1C3 having the amino acid sequence shown by Sequence NO. 1 in the Sequence Table, glycine, and mannitol were dissolved in purified water to a final concentration of 6 mg/ml (0.86 mM), 6.7 mg/ml (89 mM), and 33.5 mg/ml (184 mM), respectively. The resulting solution was divided into six equal portions. These portions were adjusted to the pH shown in Table 1 with the addition of 30 mM of tartaric acid, phosphoric acid, or Tris buffer solution. The peptide solutions for which the pH was thus adjusted filtered through a 0.22 μm membrane filter. The filtrates were charged into 6 ml vials in the amount of 1 ml for each vial. 50 such vials were prepared for each pH of the solution, totaling 300 vials. All these 300 vials were lyophilized.
The lyophilized samples were stored in an incubator at 50° C. and removed from the incubator after 1, 2, 4, 6, 8 weeks, respectively. 1 ml of purified water was added to each vial removed. Solutions further diluted 50-fold were subjected to liquid chromatography to measure a peak area percentage of hirudin variant HV1C3 under the conditions shown in Table 2. The amount (percentage) of the hirudin variant HV1C3 remaining in the lyophilized sample, after having been stored in the incubator, compound with the amount of the hirudin variant HV1C3 contained at the beginning of the storage was determined.

B1: hirudin variant HV1C3: Hirudin variant having the amino acid sequence shown by Sequence No. 1 (JP Laid-open No. 173798/1992) (protein)
chain: VVYTDCTESGQNLCLCEGSNVCGQGNKCILGSDGEKNQCVTGEGTPKPQSHNQGDFEPIPEDAYDE
- Remaining peptide (%) 1 wk ([1]; pH 5.0, 30 mM tartaric acid): 97.6%
- Remaining peptide (%) 2 wks ([1]; pH 5.0, 30 mM tartaric acid): 96.1%
- Remaining peptide (%) 3 wks ([1]; pH 5.0, 30 mM tartaric acid): 93.2%
- Remaining peptide (%) 4 wks ([1]; pH 5.0, 30 mM tartaric acid): 91.8%
- Remaining peptide (%) 5 wks ([1]; pH 5.0, 30 mM tartaric acid): 91.7%
- Remaining peptide (%) 6 wks ([1]; pH 5.0, 30 mM tartaric acid): 89.9%
- Remaining peptide (%) 7 wks ([1]; pH 5.0, 30 mM tartaric acid): 69.1%
- Remaining peptide (%) 8 wks ([1]; pH 5.0, 30 mM tartaric acid): 86.6%
- Remaining peptide (%) 1 wk ([1]; pH 5.5, 30 mM tartaric acid): 98.4%
- Remaining peptide (%) 2 wks ([1]; pH 5.5, 30 mM tartaric acid): 97.6%
- Remaining peptide (%) 3 wks ([1]; pH 5.5, 30 mM tartaric acid): 95.9%
- Remaining peptide (%) 4 wks ([1]; pH 5.5, 30 mM tartaric acid): 95.2%
- Remaining peptide (%) 5 wks ([1]; pH 5.5, 30 mM tartaric acid): 92.4%
- Remaining peptide (%) 6 wks ([1]; pH 5.5, 30 mM tartaric acid): 92.2%
- Remaining peptide (%) 7 wks ([1]; pH 5.5, 30 mM tartaric acid): 91.9%
- Remaining peptide (%) 8 wks ([1]; pH 5.5, 30 mM tartaric acid): 90.6%
- Remaining peptide (%) 1 wk ([1]; pH 6.0, 30 mM tartaric acid): 98.4%
- Remaining peptide (%) 2 wks ([1]; pH 6.0, 30 mM tartaric acid): 97.6%
- Remaining peptide (%) 3 wks ([1]; pH 6.0, 30 mM tartaric acid): 96.6%
- Remaining peptide (%) 4 wks ([1]; pH 6.0, 30 mM tartaric acid): 96.1%
- Remaining peptide (%) 5 wks ([1]; pH 6.0, 30 mM tartaric acid): 94.6%
- Remaining peptide (%) 6 wks ([1]; pH 6.0, 30 mM tartaric acid): 93.6%
- Remaining peptide (%) 7 wks ([1]; pH 6.0, 30 mM tartaric acid): 91.8%
- Remaining peptide (%) 8 wks ([1]; pH 6.0, 30 mM tartaric acid): 92.2%
- Remaining peptide (%) 1 wk ([1]; without pH adjustment): 96.9%
- Remaining peptide (%) 2 wks ([1]; without pH adjustment): 94.2%
- Remaining peptide (%) 3 wks ([1]; without pH adjustment): 92.3%
- Remaining peptide (%) 4 wks ([1]; without pH adjustment): 90.9%
- Remaining peptide (%) 5 wks ([1]; without pH adjustment): 89.9%
- Remaining peptide (%) 6 wks ([1]; without pH adjustment): 88.2%
- Remaining peptide (%) 7 wks ([1]; without pH adjustment): 87.2%
- Remaining peptide (%) 8 wks ([1]; without pH adjustment): 86.1%
- Remaining peptide (%) 1 wk ([2]; pH 5.5, acetic acid 30 mM): 98.3%
- Remaining peptide (%) 2 wks ([2]; pH 5.5, acetic acid 30 mM): 95.6%
- Remaining peptide (%) 3 wks ([2]; pH 5.5, acetic acid 30 mM): 94.2%
- Remaining peptide (%) 4 wks ([2]; pH 5.5, acetic acid 30 mM): 93.3%
- Remaining peptide (%) 5 wks ([2]; pH 5.5, acetic acid 30 mM): 92.0%
- Remaining peptide (%) 6 wks ([2]; pH 5.5, acetic acid 30 mM): 91.9%
- Remaining peptide (%) 7 wks ([2]; pH 5.5, acetic acid 30 mM): 91.4%
- Remaining peptide (%) 8 wks ([2]; pH 5.5, acetic acid 30 mM): 90.6%
- Remaining peptide (%) 1 wk ([2]; pH 5.5, citric acid 30 mM): 97.4%
- Remaining peptide (%) 2 wks ([2]; pH 5.5, citric acid 30 mM): 95.8%
- Remaining peptide (%) 3 wks ([2]; pH 5.5, citric acid 30 mM): 94.4%
- Remaining peptide (%) 4 wks ([2]; pH 5.5, citric acid 30 mM): 93.3%
- Remaining peptide (%) 5 wks ([2]; pH 5.5, citric acid 30 mM): 92.4%
- Remaining peptide (%) 6 wks ([2]; pH 5.5, citric acid 30 mM): 91.6%
- Remaining peptide (%) 7 wks ([2]; pH 5.5, citric acid 30 mM): 90.8%
- Remaining peptide (%) 8 wks ([2]; pH 5.5, citric acid 30 mM): 89.8%
- Remaining peptide (%) 1 wk ([2]; pH 5.5, phosphoric acid 30 mM): 77.9%
- Remaining peptide (%) 2 wks ([2]; pH 5.5, phosphoric acid 30 mM): 66.6%
- Remaining peptide (%) 3 wks ([2]; pH 5.5, phosphoric acid 30 mM): 61.4%
- Remaining peptide (%) 4 wks ([2]; pH 5.5, phosphoric acid 30 mM): 58.1%
- Remaining peptide (%) 5 wks ([2]; pH 5.5, phosphoric acid 30 mM): 57.3%
- Remaining peptide (%) 6 wks ([2]; pH 5.5, phosphoric acid 30 mM): 57.6%
- Remaining peptide (%) 1 wk ([2]; pH 5.5, tartaric acid 30 mM): 98.4%
- Remaining peptide (%) 2 wks ([2]; pH 5.5, tartaric acid 30 mM): 97.6%
- Remaining peptide (%) 3 wks ([2]; pH 5.5, tartaric acid 30 mM): 95.9%
- Remaining peptide (%) 4 wks ([2]; pH 5.5, tartaric acid 30 mM): 95.2%
- Remaining peptide (%) 5 wks ([2]; pH 5.5, tartaric acid 30 mM): 92.4%
- Remaining peptide (%) 6 wks ([2]; pH 5.5, tartaric acid 30 mM): 92.2%
- Remaining peptide (%) 7 wks ([2]; pH 5.5, tartaric acid 30 mM): 91.9%
- Remaining peptide (%) 8 wks ([2]; pH 5.5, tartaric acid 30 mM): 90.6%
- Remaining peptide (%) 1 wk ([2]; without pH adjustment): 96.9%
- Remaining peptide (%) 2 wks ([2]; without pH adjustment): 94.2%
- Remaining peptide (%) 3 wks ([2]; without pH adjustment): 92.3%
- Remaining peptide (%) 4 wks ([2]; without pH adjustment): 90.9%
- Remaining peptide (%) 5 wks ([2]; without pH adjustment): 89.9%
- Remaining peptide (%) 6 wks ([2]; without pH adjustment): 88.2%
- Remaining peptide (%) 7 wks ([2]; without pH adjustment): 87.2%
- Remaining peptide (%) 8 wks ([2]; without pH adjustment): 86.1%
- Remaining peptide (%) 1 wk ([3]; pH 4.5, tartaric acid 30 mM): 98.0%
- Remaining peptide (%) 2 wks ([3]; pH 4.5, tartaric acid 30 mM): 97.7%
- Remaining peptide (%) 4 wks ([3]; pH 4.5, tartaric acid 30 mM): 95.4%
- Remaining peptide (%) 6 wks ([3]; pH 4.5, tartaric acid 30 mM): 94.7%
- Remaining peptide (%) 8 wks ([3]; pH 4.5, tartaric acid 30 mM): 93.4%
- Remaining peptide (%) 1 wk ([3]; pH 5.5, tartaric acid 30 mM): 98.6%
- Remaining peptide (%) 2 wks ([3]; pH 5.5, tartaric acid 30 mM): 98.7%
- Remaining peptide (%) 4 wks ([3]; pH 5.5, tartaric acid 30 mM): 97.5%
- Remaining peptide (%) 6 wks ([3]; pH 5.5, tartaric acid 30 mM): 96.5%
- Remaining peptide (%) 8 wks ([3]; pH 5.5, tartaric acid 30 mM): 97.0%
- Remaining peptide (%) 1 wk ([3]; pH 6.0, phosphoric acid 30 mM): 98.4%
- Remaining peptide (%) 2 wks ([3]; pH 6.0, phosphoric acid 30 mM): 96.4%
- Remaining peptide (%) 4 wks ([3]; pH 6.0, phosphoric acid 30 mM): 95.1%
- Remaining peptide (%) 6 wks ([3]; pH 6.0, phosphoric acid 30 mM): 94.5%
- Remaining peptide (%) 8 wks ([3]; pH 6.0, phosphoric acid 30 mM): 93.6%
- Remaining peptide (%) 1 wk ([3]; pH 7.0, Tris buffer 30 mM): 95.7%
- Remaining peptide (%) 2 wks ([3]; pH 7.0, Tris buffer 30 mM): 92.0%
- Remaining peptide (%) 4 wks ([3]; pH 7.0, Tris buffer 30 mM): 86.8%
- Remaining peptide (%) 6 wks ([3]; pH 7.0, Tris buffer 30 mM): 72.0%
- Remaining peptide (%) 8 wks ([3]; pH 7.0, Tris buffer 30 mM): 70.3%
- Remaining peptide (%) 1 wk ([3]; pH 7.0, phosphoric acid 30 mM): 99.0%
- Remaining peptide (%) 2 wks ([3]; pH 7.0, phosphoric acid 30 mM): 97.3%
- Remaining peptide (%) 4 wks ([3]; pH 7.0, phosphoric acid 30 mM): 93.3%
- Remaining peptide (%) 6 wks ([3]; pH 7.0, phosphoric acid 30 mM): 92.7%
- Remaining peptide (%) 8 wks ([3]; pH 7.0, phosphoric acid 30 mM): 90.0%
- Remaining peptide (%) 1 wk ([3]; pH 8.0, Tris buffer 30 mM): 81.9%
- Remaining peptide (%) 2 wks ([3]; pH 8.0, Tris buffer 30 mM): 58.0%
